Data on one molecule can be found in article PMC7397871.

The target of the series is T1, ZC3H12B PIN + C3H1 crystallization construct (Homo sapiens, UniProt Q5HYM0 179-380).
T1 sequence: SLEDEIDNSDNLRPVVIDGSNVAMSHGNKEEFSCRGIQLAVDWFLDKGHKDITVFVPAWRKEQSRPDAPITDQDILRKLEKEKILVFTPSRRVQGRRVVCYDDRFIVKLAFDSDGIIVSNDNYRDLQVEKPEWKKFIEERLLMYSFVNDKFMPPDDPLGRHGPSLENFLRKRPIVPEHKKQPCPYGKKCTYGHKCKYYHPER
Description: X-ray crystallography.

Consider AAUGCGACAGUCGGUAGCAUC (ssRNA, phosphorothioate between nt 1 and 2 (5' end)) [21-nt HTR-SELEX-enriched RNA], for which the binding result was “binds”.
